Assay results: publication PMC10844976 (The Journal of Biological Chemistry, 2024)
Where “and” joins values, the source holds several entries; their conditions need not be identical. Identical values can stand only once.

B1: M1 protein (natural protein)
chain: NGDGNPREVIEDLAANNPAIQNIRLRYENKDLKARLENAMEVAGRDFKRAEELEKAKQALEDQRKDLETKLKELQQDYDLAKESTSWDRQRLEKELEEKKEALELAIDQASRDYHRATALEKELEEKKKALELAIDQASQDYNRANVLEKELETITREQEINRNLLGNAKLELDQLSSEKEQLTIEKAKLEEEKQISDASRQSLRRDLDASREAKKQVEKDLANLTAELDKVKEDKQISDASRQGLRRDLDASREAKKQVEKDLANLTAELDKVKEEKQISDASRQGLRRDLDASREAKKQVEKALEEANSKLAALEKLNKELEESKKLTEKEKAELQAKLEAEAKALKEQLAKQAEELAKLRAGKASDSQTPDTKPGNKAVPGKGQAPQAGTKPNQNKAPMKETKRQLPST

Key:
[1] = molecular target: M-related protein (Mrp), mrp type 115, from GAS strain NS730 (Streptococcus pyogenes); test: SPR
[2] = molecular target: M-related protein (Mrp), mrp type 174, from GAS strain NS452 (Streptococcus pyogenes); test: SPR
[3] = molecular target: M-related protein (Mrp), mrp type 298, from GAS strain 939–03 (Streptococcus pyogenes); test: SPR
[4] = molecular target: M-related protein (Mrp), mrp type 52, from GAS strain PRS66 (Streptococcus pyogenes); test: SPR
[5] = molecular target: M-related protein (Mrp), mrp type 8, from GAS strain NS931 (Streptococcus pyogenes); test: SPR
[6] = molecular target: M-related protein Mrp216 (mrp type 216), from GAS strain NS88.2 (Streptococcus pyogenes); test: SPR
[7] = molecular target: M-related protein Mrp71 (mrp type 71), from GAS strain NS192 (Streptococcus pyogenes); test: SPR
[8] = molecular target: M-related protein Mrp216 (mrp type 216), from GAS strain NS88.2 (Streptococcus pyogenes); test: mass photometry
[9] = molecular target: M1 protein (Streptococcus pyogenes) (UniProt Q99XV0); test: mass photometry
[10] = molecular target: M-related protein Mrp193 (mrp type 193), from GAS strain NS80 (Streptococcus pyogenes); test: SPR
[11] = molecular target: M-related protein Mrp105 (mrp type 105), from GAS strain NS210 (Streptococcus pyogenes); test: SPR
[12] = molecular target: M54 protein (Streptococcus pyogenes); test: mass photometry
[13] = molecular target: the molecule itself; test: mass photometry

Molecule	Kd [1]	Kd [2]	Kd [3]	Kd [4]	Kd [5]	Kd [6]	Kd [7]	stoichiometry N (IgG per Mrp216 dimer) [8]	stoichiometry N (IgG per M1 dimer) [9]	Kd [10]	stoichiometry N [8]	Kd [11]	stoichiometry N [12]	stoichiometry N [13]
human IgG1 (antibody)	13.4 nM	9.71 nM	16 nM	3 nM	15.3 nM	5.4 nM	11.1 nM	–	–	–	–	–	–	–
human IgG (pooled mixture of all IgG subclasses found in serum) (antibody)	10.2 nM	8.8 nM	9.3 nM	–	–	–	11.1 nM	1	1	6.4 nM	–	–	–	–
M-related protein Mrp216 (mrp type 216), from GAS strain NS88.2 (natural protein)	–	–	–	–	–	–	–	–	–	–	2	–	–	–
human IgG4 (antibody)	7.4 nM	11.9 nM	13.4 nM	9.02 nM	11.9 nM	4.3 nM	15.2 nM	–	–	6.5 nM	–	10.6 nM	–	–
M54 protein (natural protein)	–	–	–	–	–	–	–	–	–	–	–	–	2 and 4	–
human IgG3 (antibody)	244 nM	152 nM	226 nM	145 nM	256 nM	302 nM	220 nM	–	–	201 nM	–	208 nM	–	–
human IgG2 (antibody)	13.5 nM	11 nM	19.4 nM	6.4 nM	21.8 nM	8.12 nM	15.4 nM	–	–	8.17 nM	–	7.03 nM	–	–
B1	–	–	–	–	–	–	–	–	–	–	–	–	–	2
